Numbered stars: 1 amine (or outer) side, 2 acyl side, 3 side chain; on linkers, the order of the positions; unused ones are H or OH. Bridge positions count the residues as written; N and C are the ends. Side chains are listed from the residue outwards. Ends that are not written are not given here. * marks the point of attachment. C20 diacid = O=C(O)CCCCCCCCCCCCCCCCCCC(=O)*; γGlu = O=C(O)[C@H](CCC(=O)[*:2])N[*:1]
B1: N^ε1-[(4S)-4-carboxy-4-[[(4S)-4-carboxy-4-(19-carboxynonadecanoylamino)butanoyl]amino]butanoyl]-[Glu14,Arg17,Pro21,Pro27,Pro37]-h-amylin (peptide)
peptide: K([γGlu-γGlu-C20 diacid])CNTATCATQRLAEFLRHSSPNFGAIPSSTNVGSNTP-NH2
modifications: disulfide 2-7; N-terminus assumed
SMILES: CC[C@H](C)[C@H](NC(=O)[C@H](C)NC(=O)CNC(=O)[C@H](Cc1ccccc1)NC(=O)[C@H](CC(N)=O)NC(=O)[C@@H]1CCCN1C(=O)[C@H](CO)NC(=O)[C@H](CO)NC(=O)[C@H](Cc1c[nH]cn1)NC(=O)[C@H](CCCNC(=N)N)NC(=O)[C@H](CC(C)C)NC(=O)[C@H](Cc1ccccc1)NC(=O)[C@H](CCC(=O)O)NC(=O)[C@H](C)NC(=O)[C@H](CC(C)C)NC(=O)[C@H](CCCNC(=N)N)NC(=O)[C@H](CCC(N)=O)NC(=O)[C@@H](NC(=O)[C@H](C)NC(=O)[C@@H]1CSSC[C@H](NC(=O)[C@@H](N)CCCCNC(=O)CC[C@H](NC(=O)CC[C@H](NC(=O)CCCCCCCCCCCCCCCCCCC(=O)O)C(=O)O)C(=O)O)C(=O)N[C@@H](CC(N)=O)C(=O)N[C@@H]([C@@H](C)O)C(=O)N[C@@H](C)C(=O)N[C@@H]([C@@H](C)O)C(=O)N1)[C@@H](C)O)C(=O)N1CCC[C@H]1C(=O)N[C@@H](CO)C(=O)N[C@@H](CO)C(=O)N[C@H](C(=O)N[C@@H](CC(N)=O)C(=O)N[C@H](C(=O)NCC(=O)N[C@@H](CO)C(=O)N[C@@H](CC(N)=O)C(=O)N[C@H](C(=O)N1CCC[C@H]1C(N)=O)[C@@H](C)O)C(C)C)[C@@H](C)O
notes: also called compound 13
B2: N^ε1-[(4S)--4-carboxy-4-(19-carboxynonadecanoylamino)butanoyl]-[Glu14,Arg17,Pro21,Pro27,Pro37]-h-amylin (peptide)
peptide: K([γGlu-C20 diacid])CNTATCATQRLAEFLRHSSPNFGAIPSSTNVGSNTP-NH2
modifications: disulfide 2-7; N-terminus assumed
SMILES: CC[C@H](C)[C@H](NC(=O)[C@H](C)NC(=O)CNC(=O)[C@H](Cc1ccccc1)NC(=O)[C@H](CC(N)=O)NC(=O)[C@@H]1CCCN1C(=O)[C@H](CO)NC(=O)[C@H](CO)NC(=O)[C@H](Cc1c[nH]cn1)NC(=O)[C@H](CCCNC(=N)N)NC(=O)[C@H](CC(C)C)NC(=O)[C@H](Cc1ccccc1)NC(=O)[C@H](CCC(=O)O)NC(=O)[C@H](C)NC(=O)[C@H](CC(C)C)NC(=O)[C@H](CCCNC(=N)N)NC(=O)[C@H](CCC(N)=O)NC(=O)[C@@H](NC(=O)[C@H](C)NC(=O)[C@@H]1CSSC[C@H](NC(=O)[C@@H](N)CCCCNC(=O)CC[C@H](NC(=O)CCCCCCCCCCCCCCCCCCC(=O)O)C(=O)O)C(=O)N[C@@H](CC(N)=O)C(=O)N[C@@H]([C@@H](C)O)C(=O)N[C@@H](C)C(=O)N[C@@H]([C@@H](C)O)C(=O)N1)[C@@H](C)O)C(=O)N1CCC[C@H]1C(=O)N[C@@H](CO)C(=O)N[C@@H](CO)C(=O)N[C@H](C(=O)N[C@@H](CC(N)=O)C(=O)N[C@H](C(=O)NCC(=O)N[C@@H](CO)C(=O)N[C@@H](CC(N)=O)C(=O)N[C@H](C(=O)N1CCC[C@H]1C(N)=O)[C@@H](C)O)C(C)C)[C@@H](C)O
notes: also called compound 12
B3: N^ε1-[(4S)-4-carboxy-4-(19-carboxynonadecanoylamino)butanoyl]-[Glu14,Arg17,Pro21,Pro27,Pro34,Pro37]-h-amylin (peptide)
peptide: K([γGlu-C20 diacid])CNTATCATQRLAEFLRHSSPNFGAIPSSTNVGPNTP-NH2
modifications: disulfide 2-7; N-terminus assumed
SMILES: CC[C@H](C)[C@H](NC(=O)[C@H](C)NC(=O)CNC(=O)[C@H](Cc1ccccc1)NC(=O)[C@H](CC(N)=O)NC(=O)[C@@H]1CCCN1C(=O)[C@H](CO)NC(=O)[C@H](CO)NC(=O)[C@H](Cc1c[nH]cn1)NC(=O)[C@H](CCCNC(=N)N)NC(=O)[C@H](CC(C)C)NC(=O)[C@H](Cc1ccccc1)NC(=O)[C@H](CCC(=O)O)NC(=O)[C@H](C)NC(=O)[C@H](CC(C)C)NC(=O)[C@H](CCCNC(=N)N)NC(=O)[C@H](CCC(N)=O)NC(=O)[C@@H](NC(=O)[C@H](C)NC(=O)[C@@H]1CSSC[C@H](NC(=O)[C@@H](N)CCCCNC(=O)CC[C@H](NC(=O)CCCCCCCCCCCCCCCCCCC(=O)O)C(=O)O)C(=O)N[C@@H](CC(N)=O)C(=O)N[C@@H]([C@@H](C)O)C(=O)N[C@@H](C)C(=O)N[C@@H]([C@@H](C)O)C(=O)N1)[C@@H](C)O)C(=O)N1CCC[C@H]1C(=O)N[C@@H](CO)C(=O)N[C@@H](CO)C(=O)N[C@H](C(=O)N[C@@H](CC(N)=O)C(=O)N[C@H](C(=O)NCC(=O)N1CCC[C@H]1C(=O)N[C@@H](CC(N)=O)C(=O)N[C@H](C(=O)N1CCC[C@H]1C(N)=O)[C@@H](C)O)C(C)C)[C@@H](C)O
B4: N^ε1-[(4S)-4-carboxy-4-[[(4S)-4-carboxy-4-(19-carboxynonadecanoylamino)butanoyl]amino]butanoyl]-[Glu14,Arg17,Pro21,Pro27,Pro34,Glu35,Pro37]-h-amylin (peptide)
peptide: K([γGlu-γGlu-C20 diacid])CNTATCATQRLAEFLRHSSPNFGAIPSSTNVGPETP-NH2
modifications: disulfide 2-7; N-terminus assumed
SMILES: CC[C@H](C)[C@H](NC(=O)[C@H](C)NC(=O)CNC(=O)[C@H](Cc1ccccc1)NC(=O)[C@H](CC(N)=O)NC(=O)[C@@H]1CCCN1C(=O)[C@H](CO)NC(=O)[C@H](CO)NC(=O)[C@H](Cc1c[nH]cn1)NC(=O)[C@H](CCCNC(=N)N)NC(=O)[C@H](CC(C)C)NC(=O)[C@H](Cc1ccccc1)NC(=O)[C@H](CCC(=O)O)NC(=O)[C@H](C)NC(=O)[C@H](CC(C)C)NC(=O)[C@H](CCCNC(=N)N)NC(=O)[C@H](CCC(N)=O)NC(=O)[C@@H](NC(=O)[C@H](C)NC(=O)[C@@H]1CSSC[C@H](NC(=O)[C@@H](N)CCCCNC(=O)CC[C@H](NC(=O)CC[C@H](NC(=O)CCCCCCCCCCCCCCCCCCC(=O)O)C(=O)O)C(=O)O)C(=O)N[C@@H](CC(N)=O)C(=O)N[C@@H]([C@@H](C)O)C(=O)N[C@@H](C)C(=O)N[C@@H]([C@@H](C)O)C(=O)N1)[C@@H](C)O)C(=O)N1CCC[C@H]1C(=O)N[C@@H](CO)C(=O)N[C@@H](CO)C(=O)N[C@H](C(=O)N[C@@H](CC(N)=O)C(=O)N[C@H](C(=O)NCC(=O)N1CCC[C@H]1C(=O)N[C@@H](CCC(=O)O)C(=O)N[C@H](C(=O)N1CCC[C@H]1C(N)=O)[C@@H](C)O)C(C)C)[C@@H](C)O
B5: N^ε1-[(4S)-4-carboxy-4-(19-carboxynonadecanoylamino)butanoyl]-[His14,Arg17,Pro21,Pro27,Pro31,Pro34]-h-amylin (peptide)
peptide: K([γGlu-C20 diacid])CNTATCATQRLAHFLRHSSPNFGAIPSSTPVGPNTY-NH2
modifications: disulfide 2-7; N-terminus assumed
SMILES: CC[C@H](C)[C@H](NC(=O)[C@H](C)NC(=O)CNC(=O)[C@H](Cc1ccccc1)NC(=O)[C@H](CC(N)=O)NC(=O)[C@@H]1CCCN1C(=O)[C@H](CO)NC(=O)[C@H](CO)NC(=O)[C@H](Cc1c[nH]cn1)NC(=O)[C@H](CCCNC(=N)N)NC(=O)[C@H](CC(C)C)NC(=O)[C@H](Cc1ccccc1)NC(=O)[C@H](Cc1c[nH]cn1)NC(=O)[C@H](C)NC(=O)[C@H](CC(C)C)NC(=O)[C@H](CCCNC(=N)N)NC(=O)[C@H](CCC(N)=O)NC(=O)[C@@H](NC(=O)[C@H](C)NC(=O)[C@@H]1CSSC[C@H](NC(=O)[C@@H](N)CCCCNC(=O)CC[C@H](NC(=O)CCCCCCCCCCCCCCCCCCC(=O)O)C(=O)O)C(=O)N[C@@H](CC(N)=O)C(=O)N[C@@H]([C@@H](C)O)C(=O)N[C@@H](C)C(=O)N[C@@H]([C@@H](C)O)C(=O)N1)[C@@H](C)O)C(=O)N1CCC[C@H]1C(=O)N[C@@H](CO)C(=O)N[C@@H](CO)C(=O)N[C@H](C(=O)N1CCC[C@H]1C(=O)N[C@H](C(=O)NCC(=O)N1CCC[C@H]1C(=O)N[C@@H](CC(N)=O)C(=O)N[C@H](C(=O)N[C@@H](Cc1ccc(O)cc1)C(N)=O)[C@@H](C)O)C(C)C)[C@@H](C)O
B6: N^ε1-[(4S)-4-carboxy-4-(19-carboxynonadecanoylamino)butanoyl]-[His14,Arg17,Pro21,Pro27,Pro34,Pro37]-h-amylin (peptide)
peptide: K([γGlu-C20 diacid])CNTATCATQRLAHFLRHSSPNFGAIPSSTNVGPNTP-NH2
modifications: disulfide 2-7; N-terminus assumed
SMILES: CC[C@H](C)[C@H](NC(=O)[C@H](C)NC(=O)CNC(=O)[C@H](Cc1ccccc1)NC(=O)[C@H](CC(N)=O)NC(=O)[C@@H]1CCCN1C(=O)[C@H](CO)NC(=O)[C@H](CO)NC(=O)[C@H](Cc1c[nH]cn1)NC(=O)[C@H](CCCNC(=N)N)NC(=O)[C@H](CC(C)C)NC(=O)[C@H](Cc1ccccc1)NC(=O)[C@H](Cc1c[nH]cn1)NC(=O)[C@H](C)NC(=O)[C@H](CC(C)C)NC(=O)[C@H](CCCNC(=N)N)NC(=O)[C@H](CCC(N)=O)NC(=O)[C@@H](NC(=O)[C@H](C)NC(=O)[C@@H]1CSSC[C@H](NC(=O)[C@@H](N)CCCCNC(=O)CC[C@H](NC(=O)CCCCCCCCCCCCCCCCCCC(=O)O)C(=O)O)C(=O)N[C@@H](CC(N)=O)C(=O)N[C@@H]([C@@H](C)O)C(=O)N[C@@H](C)C(=O)N[C@@H]([C@@H](C)O)C(=O)N1)[C@@H](C)O)C(=O)N1CCC[C@H]1C(=O)N[C@@H](CO)C(=O)N[C@@H](CO)C(=O)N[C@H](C(=O)N[C@@H](CC(N)=O)C(=O)N[C@H](C(=O)NCC(=O)N1CCC[C@H]1C(=O)N[C@@H](CC(N)=O)C(=O)N[C@H](C(=O)N1CCC[C@H]1C(N)=O)[C@@H](C)O)C(C)C)[C@@H](C)O

Tests used:
[1] = target: T1, human amylin 3(a) receptor (human calcitonin receptor + RAMP-3) (human, UniProt P30988 25-474; O60896 24-148, limits assumed); experiment: cell-based or functional assay
T1 sequence (looked up) 1: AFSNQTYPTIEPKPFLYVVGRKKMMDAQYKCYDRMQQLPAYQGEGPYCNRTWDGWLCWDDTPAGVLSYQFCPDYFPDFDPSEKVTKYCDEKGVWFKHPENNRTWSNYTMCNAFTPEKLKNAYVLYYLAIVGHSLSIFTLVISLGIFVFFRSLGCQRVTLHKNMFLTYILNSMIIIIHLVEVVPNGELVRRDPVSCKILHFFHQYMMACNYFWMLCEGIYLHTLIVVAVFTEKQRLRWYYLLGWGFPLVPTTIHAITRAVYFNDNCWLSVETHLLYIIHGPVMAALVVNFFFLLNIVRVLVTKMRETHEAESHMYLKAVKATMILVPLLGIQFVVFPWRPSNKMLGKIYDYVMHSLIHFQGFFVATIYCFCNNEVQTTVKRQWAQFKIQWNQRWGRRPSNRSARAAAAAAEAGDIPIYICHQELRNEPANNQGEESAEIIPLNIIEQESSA
T1 sequence (looked up) 2: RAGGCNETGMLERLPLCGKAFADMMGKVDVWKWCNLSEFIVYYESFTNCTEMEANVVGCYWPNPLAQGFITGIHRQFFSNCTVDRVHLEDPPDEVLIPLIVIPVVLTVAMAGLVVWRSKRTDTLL

[2] = target: T2, human calcitonin receptor (human, UniProt P30988 25-474); experiment: cell-based or functional assay
T2 sequence (looked up): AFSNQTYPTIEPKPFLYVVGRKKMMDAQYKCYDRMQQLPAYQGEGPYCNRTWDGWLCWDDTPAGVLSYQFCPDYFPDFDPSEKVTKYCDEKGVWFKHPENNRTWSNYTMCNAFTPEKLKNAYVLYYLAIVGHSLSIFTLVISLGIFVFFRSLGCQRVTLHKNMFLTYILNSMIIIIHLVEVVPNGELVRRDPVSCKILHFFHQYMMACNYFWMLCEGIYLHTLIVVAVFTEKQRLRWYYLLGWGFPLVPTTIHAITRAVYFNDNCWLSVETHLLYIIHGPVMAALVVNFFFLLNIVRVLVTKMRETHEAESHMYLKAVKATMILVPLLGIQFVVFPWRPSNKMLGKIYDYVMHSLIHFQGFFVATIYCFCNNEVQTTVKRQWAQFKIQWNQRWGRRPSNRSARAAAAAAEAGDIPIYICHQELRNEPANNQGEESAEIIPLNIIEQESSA

| Binder | hAmylin-R funct. EC50 (pM) [1] [pM] | Ratio hCT/hAmylin funct. [2] | hCTR funct. EC50 (pM) [2] [pM] |
| --- | --- | --- | --- |
| B1 | 213 | 2.2 | – |
| B2 | 101 | 1.8 | – |
| B3 | 105 | 0.9 | – |
| B4 | 132 | 0.8 | 102 |
| B5 | 71 | 4.9 | – |
| B6 | 52 | 0.8 | – |

— patent US20140087995A1 (published 2014)
